Experiment [1] addresses T1, MASP3 in Factor D depleted human plasma (human, UniProt P48740-2 20-728).
T1 sequence (looked up): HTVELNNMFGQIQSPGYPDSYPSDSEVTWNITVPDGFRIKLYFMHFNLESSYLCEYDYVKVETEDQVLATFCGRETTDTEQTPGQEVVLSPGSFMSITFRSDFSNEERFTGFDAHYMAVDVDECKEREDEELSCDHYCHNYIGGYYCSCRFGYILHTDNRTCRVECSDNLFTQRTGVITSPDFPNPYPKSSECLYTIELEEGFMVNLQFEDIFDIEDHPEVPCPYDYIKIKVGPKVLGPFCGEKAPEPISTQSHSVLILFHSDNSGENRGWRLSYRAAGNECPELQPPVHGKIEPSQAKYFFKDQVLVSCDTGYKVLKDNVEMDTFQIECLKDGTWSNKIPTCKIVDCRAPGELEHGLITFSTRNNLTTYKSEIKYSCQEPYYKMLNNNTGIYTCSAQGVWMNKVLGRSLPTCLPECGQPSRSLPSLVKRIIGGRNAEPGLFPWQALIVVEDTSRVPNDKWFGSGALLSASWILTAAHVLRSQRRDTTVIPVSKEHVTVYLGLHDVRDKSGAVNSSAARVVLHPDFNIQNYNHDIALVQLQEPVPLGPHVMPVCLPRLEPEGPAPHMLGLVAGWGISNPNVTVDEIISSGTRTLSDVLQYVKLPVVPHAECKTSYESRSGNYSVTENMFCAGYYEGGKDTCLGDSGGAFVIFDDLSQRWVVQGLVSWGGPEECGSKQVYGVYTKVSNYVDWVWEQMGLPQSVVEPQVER
Put plainly: cell-based or functional assay.

Experiment [2] concerns the target T2, human MASP3-His (human, UniProt P48740-2 20-728).
T2 sequence (looked up): T1 sequence (looked up)
Put plainly: cell-based or functional assay.

Experiment [3] concerns the target T2, human MASP3-His. Put plainly: cell-based or functional assay. This is another data set of the same source.
In experiment [4] the target is T2, human MASP3-His. The experiment in a line: ELISA; antigen coated 0.1 ug/well, antibody titrated, goat anti-human IgG-HRP. On the technique in general: An ELISA detects its analyte on a solid surface through an enzyme-linked reagent.
A further experiment has as its target T3, monkey MASP3-His (monkey).
T3 construct: monkey species not further specified
The experiment is described as above.

Another experiment deals with T4, mouse MASP3-His (mouse, UniProt P98064-2 25-733).
T4 construct: not shown: His tag added to the terminal
T4 sequence (looked up): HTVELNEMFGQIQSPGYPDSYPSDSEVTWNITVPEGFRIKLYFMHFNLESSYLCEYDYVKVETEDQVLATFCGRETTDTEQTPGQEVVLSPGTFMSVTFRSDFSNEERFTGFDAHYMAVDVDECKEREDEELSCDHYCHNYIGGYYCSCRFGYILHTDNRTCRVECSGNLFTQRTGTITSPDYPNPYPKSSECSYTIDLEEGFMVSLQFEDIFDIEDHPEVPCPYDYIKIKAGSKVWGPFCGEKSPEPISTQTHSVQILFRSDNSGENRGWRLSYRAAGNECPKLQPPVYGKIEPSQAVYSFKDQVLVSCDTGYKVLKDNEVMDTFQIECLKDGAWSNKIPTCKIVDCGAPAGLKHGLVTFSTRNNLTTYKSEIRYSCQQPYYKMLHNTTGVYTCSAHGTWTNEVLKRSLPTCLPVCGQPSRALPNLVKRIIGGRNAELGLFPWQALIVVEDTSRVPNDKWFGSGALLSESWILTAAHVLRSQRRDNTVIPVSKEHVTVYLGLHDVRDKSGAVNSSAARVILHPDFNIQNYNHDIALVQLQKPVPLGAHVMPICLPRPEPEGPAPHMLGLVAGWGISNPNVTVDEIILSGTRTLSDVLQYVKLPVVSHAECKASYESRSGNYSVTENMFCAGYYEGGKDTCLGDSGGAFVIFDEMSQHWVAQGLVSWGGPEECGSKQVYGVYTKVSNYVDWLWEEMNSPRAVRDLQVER
Described as above.

In general, EC50 refers to the concentration that produces a half-maximal response.

B1: M3-K1 (antibody, V domains shown)
VH: EVQLQQSGAELVKPGASVKISCKASGYTFTGKWIEWVKQRPGHGLEWIGEILPGSGSTDYNERFKDKATFTADTSSNTAYMQLTSLTPDDSATYYCVRSEDLWGSGTTLTVSS
VL: DVVMTQTPSSLAVSAGEKVTMSCKSSQSLLNSVTRKTYLAWYQQKPGQSPKLLIYWASTRESGVPDRFTGSGSGTDFTLTISSVQAEDLAIYYCKQSYTLPTFGGGTKLEIK
notes: also called anti-MASP3 chimeric antibody M3-K1
For B1, the “Inhibit hemolysis IC50” value in experiment [1] is 2.05 nM. Further, the “IC50 (nM), inhibition of MASP3 enzyme activity (fluorescent tripeptide cleavage)” value in the experiment with human MASP3-His [2] stood at 32.1 nM. For the same molecule, the “IC50 (nM), inhibition of MASP3 enzyme activity (cleavage of fluorescent tripeptide Boc-Val-Pro-Arg-AMC)” value in the experiment with human MASP3-His [3] was found to be 34 nM. The EC50 with human MASP3-His [4] was found to be 0.08 nM; with monkey MASP3-His it was 0.79 nM; with mouse MASP3-His it was 0.23 nM.

B2: M3-K2 (antibody, V domains shown)
VH: B1 VH
VL: DIVLTQSPSSLAVSAGEKVTMTCKSSQNLFNSRTRKNYLAWFQQKPGQSPKLLIYWASTRESGVPDRFTGSGSGTDFTLTISSVQAEDLAVYYCKQSYIPFTFGGGTKLEIK
notes: also called anti-MASP3 chimeric antibody M3-K2
With B2, the “Inhibit hemolysis IC50” value in experiment [1] is 1.31 nM. The “IC50 (nM), inhibition of MASP3 enzyme activity (fluorescent tripeptide cleavage)” value in the experiment with human MASP3-His [2] turned out to be 21.4 nM. Besides, the “IC50 (nM), inhibition of MASP3 enzyme activity (cleavage of fluorescent tripeptide Boc-Val-Pro-Arg-AMC)” value with human MASP3-His [3] was found to be 38.6 nM. The EC50 was 0.04 nM with human MASP3-His [4], 0.24 nM with monkey MASP3-His and 0.08 nM in the experiment with mouse MASP3-His.

The record behind these values is patent EP4725501A1 (Staidson (Beijing) Biopharmaceuticals Co., Ltd., dated 2026).
